In paper PMC7769003:
pKd: −log10 of the molar value.

Biological target: Recombinant VEEV p62-E1 protein (TrD strain) (Venezuelan equine encephalitis virus (TrD strain))
Assay: SPR

For “HRV-cleaved monovalent Ldlrad3-D1 (from UniProt A2AR95 18-70) (domain or fragment)”, the pKd was 6.68.
